# Experimental data as given in patent publication US20210238268A1 (ATARGA, published 2021).
# Numbering of substitutions follows the chain as printed.
# B1: ATG-008 (antibody, IgG2)
# heavy: QVQLVQSGAEVKKPGASVKVSCKASGHIFTDFYMQWVRQAPGQGLEWMGEILPGTGHTEYAQKFQGRVTMTRDTSISTVYMEVRRLRSDDTAVYYCARYFFGSTPNWYFDVWGQGTLVTVSSASTKGPSVFPLAPCSRSTSESTAALGCLVKDYFPEPVTVSWNSGALTSGVHTFPAVLQSSGLYSLSSVVTVPSSNFGTQTYTCNVDHKPSNTKVDKTVERKCCVECPPCPAPPVAGPSVFLFPPKPKDTLMISRTPEVTCVVVDVSQEDPEVQFNWYVDGVEVHNAKTKPREEQFNSTYRVVSVLTVLHQDWLNGKEYKCKVSNKGLPSSIEKTISKAKGQPREPQVYTLPPSQEEMTKNQVSLTCLVKGFYPSDIAVEWESNGQPENNYKTTPPVLDSDGSFFLYSRLTVDKSRWQEGNVFSCSVLHEALHSHYTQKSLSLSLGK
# light: EIVMTQSPSSLSASVGDRVTITCGATENIYGALNWYQHEPGKAPKLLIYGASNRYTGVTSRFSGSGSGTDFTLTISTLQPEDFATYYCQQVLNTPVSFGGGTKVDIKRTVAAPSVFIFPPSDEQLKSGTASVVCLLNNFYPREAKVQWKVDNALQSGNSQESVTEQDSKDSTYSLSSTLTLSKADYEKHKVYACEVTHQGLSSPVTKSFNRGEC
# notes: Expressed in Expi CHO cells; also called anti-C5 monoclonal antibody ATG-008
# B2: ATG-012 (antibody, IgG2)
# heavy: B1 heavy with M253Y, S255T, T257E, L429M, S435N
# light: B1 light
# notes: Same variable regions as ATG-008; Expressed in Expi CHO cells; also called anti-C5 monoclonal antibody ATG-012
# B3: ATG-001 (antibody, V domains shown)
# VH: QVQLVQSGAEVKKPGASVKVSCKASGYIFTNYWMQWVRQAPGQGLEWMGEILPGTGSTEYAQKFQGRVTMTRDTSISTVYMEVRRLRSDDTAVYYCARYFFGSTPNWYFDVWGQGTLVTVSS
# VL: EIVMTQSPSSLSASVGDRVTITCGATENIYGALNWYQHEPGKAPKLLIYGASNLADGVTSRFSGSGSGTDFTLTISTLQPEDFATYYCQNVLNTPLSFGGGTKVDIKR
# notes: Expressed in Expi CHO cells; also called anti-C5 monoclonal antibody ATG-001
# B4: ATG-006 (antibody, V domains shown)
# VH: B3 VH with N31D, Y32F, W33Y
# VL: B3 VL with L54R, A55Y, D56T, N90Q, L96V
# notes: Expressed in Expi CHO cells; also called anti-C5 monoclonal antibody ATG-006
# B5: ATG-005 (antibody, V domains shown)
# VH: B3 VH
# VL: B3 VL with L54R, A55Y, D56T, N90Q, L96V
# notes: Expressed in Expi CHO cells; also called anti-C5 monoclonal antibody ATG-005
# Biological target: T1, human Complement component 5 (C5) (human, UniProt P01031 19-1676, limits assumed)
# T1 construct: also called human C5
# Assay: ELISA, binding to human C5 at pH 7.4 (C5 ELISA, absorbance at 450 nm)
# Description: The exemplary antibodies were tested for binding to human C5 at pH 7.4 using ELISA.
# T1 sequence (P01031 19-1676 limits assumed): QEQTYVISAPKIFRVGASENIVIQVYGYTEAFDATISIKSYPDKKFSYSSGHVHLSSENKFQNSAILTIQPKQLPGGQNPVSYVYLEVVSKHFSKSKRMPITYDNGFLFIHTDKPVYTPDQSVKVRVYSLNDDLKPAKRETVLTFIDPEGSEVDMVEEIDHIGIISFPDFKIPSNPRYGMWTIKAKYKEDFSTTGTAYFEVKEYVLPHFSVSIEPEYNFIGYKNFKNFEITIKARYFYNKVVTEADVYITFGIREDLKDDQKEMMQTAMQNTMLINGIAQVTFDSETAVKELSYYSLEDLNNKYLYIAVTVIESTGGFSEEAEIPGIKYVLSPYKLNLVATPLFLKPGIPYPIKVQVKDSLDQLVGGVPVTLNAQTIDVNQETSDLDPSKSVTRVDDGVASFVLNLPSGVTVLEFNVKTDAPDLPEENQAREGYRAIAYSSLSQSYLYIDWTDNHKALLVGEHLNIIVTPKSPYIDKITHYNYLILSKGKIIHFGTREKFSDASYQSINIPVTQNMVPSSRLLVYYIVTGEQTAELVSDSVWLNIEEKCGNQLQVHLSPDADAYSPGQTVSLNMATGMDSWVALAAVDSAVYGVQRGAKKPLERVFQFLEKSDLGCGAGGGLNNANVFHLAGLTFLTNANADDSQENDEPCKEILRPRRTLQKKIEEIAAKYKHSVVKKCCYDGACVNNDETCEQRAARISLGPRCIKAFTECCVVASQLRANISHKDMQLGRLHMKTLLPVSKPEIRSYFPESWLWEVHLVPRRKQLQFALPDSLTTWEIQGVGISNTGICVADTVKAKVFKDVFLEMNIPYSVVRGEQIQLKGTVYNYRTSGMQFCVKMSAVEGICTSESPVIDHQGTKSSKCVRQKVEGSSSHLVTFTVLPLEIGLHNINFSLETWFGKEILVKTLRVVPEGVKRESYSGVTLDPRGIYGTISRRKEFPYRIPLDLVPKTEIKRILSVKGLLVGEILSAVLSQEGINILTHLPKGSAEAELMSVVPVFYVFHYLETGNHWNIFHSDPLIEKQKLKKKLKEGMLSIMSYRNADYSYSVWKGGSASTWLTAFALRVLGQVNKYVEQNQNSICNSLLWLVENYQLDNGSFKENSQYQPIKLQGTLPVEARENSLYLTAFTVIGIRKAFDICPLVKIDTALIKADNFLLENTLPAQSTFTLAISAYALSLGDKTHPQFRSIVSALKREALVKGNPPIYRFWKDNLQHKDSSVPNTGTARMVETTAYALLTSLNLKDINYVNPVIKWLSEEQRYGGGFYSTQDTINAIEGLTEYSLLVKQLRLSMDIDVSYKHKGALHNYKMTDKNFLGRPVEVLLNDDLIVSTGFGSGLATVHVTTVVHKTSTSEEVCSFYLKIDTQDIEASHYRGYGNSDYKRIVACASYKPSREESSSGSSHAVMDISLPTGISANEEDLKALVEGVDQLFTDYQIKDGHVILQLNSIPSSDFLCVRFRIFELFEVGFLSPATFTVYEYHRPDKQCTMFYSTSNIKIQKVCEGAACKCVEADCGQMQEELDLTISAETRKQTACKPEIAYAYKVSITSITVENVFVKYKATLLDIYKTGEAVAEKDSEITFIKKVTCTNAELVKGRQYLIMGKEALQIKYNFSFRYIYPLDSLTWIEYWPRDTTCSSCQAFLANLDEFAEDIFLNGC
Binder,EC50,EC50 (read off the curve)
B1,0.09 µg/mL,–
B2,0.52 µg/mL,–
B3,0.099 µg/mL,–
B4,0.034 µg/mL,~0.03 µg/mL
B5,0.041 µg/mL,~0.04 µg/mL
